± gives the standard deviation of the averaged measurements.
Key:
Assay in all cases: protein stability index of tFT-peptide fusion (C-terminal peptide) (PSI (0-1 scale)); higher = more stable (slower turnover)
[1] = test system: Saccharomyces cerevisiae; settings: temperature: 30 C
Protocol: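 MPS profiling in S. cerevisiae of the yeast C-terminome library: the last 12 aa of each annotated ORF are fused to the C-terminus of a sfGFP-mCherry timer, after a GGGS linker. Cells are FACS-sorted into 8 mCherry/sfGFP bins and deep-sequenced. PSI runs from 0 (unstable) to 1 (stable); wild type and das1Δ backgrounds, two technical replicates each.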

[2] = test system: Saccharomyces cerevisiae
Protocol: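 MPS profiling in S. cerevisiae of the tFT-X12 degron library: putative degron peptides plus stable controls, 12 aa, fused to the C-terminus of a sfGFP-mCherry timer. Cells are FACS-sorted into 8 mCherry/sfGFP bins and deep-sequenced. PSI runs from 0 (unstable) to 1 (stable). Backgrounds are wild type, das1Δ and doa10Δ at 30 °C, and wild type, das1Δ, cdc34-1 and cdc53-1 at 37 °C; 2-3 technical replicates each.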

[3] = test system: Saccharomyces cerevisiae; settings: genetic background: wild type; temperature: 30 C
[4] = genetic background: das1 deletion
[5] = genetic background: cdc34-1, temperature: 37 C
[6] = genetic background: cdc53-1, temperature: 37 C
[7] = genetic background: das1 deletion, temperature: 30 C
[8] = genetic background: das1 deletion, temperature: 37 C
[9] = genetic background: doa10 deletion, temperature: 30 C
[10] = genetic background: wild type, temperature: 30 C
[11] = genetic background: wild type, temperature: 37 C

| Sequence | protein stability index [1, 4] | protein stability index ([1]; genetic background: wild type) | further results |
| --- | --- | --- | --- |
| AAEAKEHMQEAN [TIF34 C-terminal 12 aa] | 0.732 ± 0.062 | 0.69 ± 0.059 |  |
| AATAKGKGKKKK [RSM27 C-terminal 12 aa] | 0.6993 ± 0.005 | 0.64475 ± 0.00021 |  |
| ACELLFENNIDM [PHO81 C-terminal 12 aa] | 0.695 ± 0.015 | 0.7517 ± 0.0037 |  |
| ACIFNVATASIP [YGR270C-A C-terminal 12 aa] | 0.719 ± 0.036 | 0.692 ± 0.03 |  |
| AFGNGFNSSIRW [NRP1 C-terminal 12 aa] | 0.71 ± 0.012 | 0.68 ± 0.0089 |  |
| AFKGHDNSDDKA [RIB2 C-terminal 12 aa] | 0.706 ± 0.017 | 0.666 ± 0.025 |  |
| AFKRKKQELGVN [QDR2 C-terminal 12 aa] | 0.671 ± 0.013 | 0.697 ± 0.089 |  |
| AFSSNDLLTVHL [BRE1 C-terminal 12 aa] | 0.698 ± 0.036 | 0.673 ± 0.011 |  |
| AFTTYRAFVEPN [PMI40 C-terminal 12 aa] | 0.72 ± 0.044 | 0.677 ± 0.0095 |  |
| AGSRRLDFRFYH [YOL162W C-terminal 12 aa] | 0.678 ± 0.064 | 0.6607 ± 0.0057 |  |
| AHYNNGLQWFSD [EMC4 C-terminal 12 aa] | 0.7084 ± 0.0065 | 0.728 ± 0.014 |  |
| AIGNCVQDEEKL [AVL9 C-terminal 12 aa] | 0.717 ± 0.0097 | 0.679 ± 0.035 |  |
| AIMAVACNVIFS [AGA1 C-terminal 12 aa] | 0.292 ± 0.024 | 0.315 ± 0.005 |  |
| AIWKHGIVEEKI [TMA19 C-terminal 12 aa] | 0.695 ± 0.014 | 0.694 ± 0.026 |  |
| AKLFKEIFAYKV [COQ8 C-terminal 12 aa] | 0.664 ± 0.0097 | 0.66 ± 0.019 |  |
| AKSLIHLFTSNQ [NRM1 C-terminal 12 aa] | 0.694 ± 0.042 | 0.7334 ± 0.0027 |  |
| AKWSISHKSNTG [YIL066W-A C-terminal 12 aa] | 0.694 ± 0.0059 | 0.69 ± 0.037 |  |
| ALGEHYNSLHDS [OTU2 C-terminal 12 aa] | 0.7 ± 0.016 | 0.653 ± 0.0071 |  |
| ALKKEYEAKKKA [COA3 C-terminal 12 aa] | 0.6861 ± 0.0068 | 0.664 ± 0.0072 |  |
| ALPTYTMEYLDI [UTP8 C-terminal 12 aa] | 0.72 ± 0.032 | 0.698 ± 0.035 |  |
| ALQVLEERMVNP [YOL107W C-terminal 12 aa] | 0.7046 ± 0.003 | 0.699 ± 0.0077 |  |
| AMDHKFFKTKFE [CKA2 C-terminal 12 aa] | 0.68817 ± 0.00016 | 0.708 ± 0.025 |  |

| Sequence | protein stability index [1, 4] | protein stability index ([1]; genetic background: wild type) | further results |
| --- | --- | --- | --- |
| AMMKAEENFVKS [MAG1 C-terminal 12 aa] | 0.655 ± 0.029 | 0.6762 ± 0.00091 |  |
| ANEALQHILDDS [INO2 C-terminal 12 aa] | 0.6882 ± 0.0011 | 0.69 ± 0.024 |  |
| AQLVSLVRNQKH [YLR198C C-terminal 12 aa] | 0.717 ± 0.022 | 0.6998 ± 0.005 |  |
| ARAAAEYDCTVA [ATR1 C-terminal 12 aa] | 0.702 ± 0.013 | 0.7 ± 0.036 |  |
| ARAAEERMKKKY [VMS1 C-terminal 12 aa] | 0.671 ± 0.023 | 0.663 ± 0.038 |  |
| AREAVVRAGFDS [YIH1 C-terminal 12 aa] | 0.729 ± 0.01 | 0.745 ± 0.071 |  |
| ASGEYESDGSDD [RRN3 C-terminal 12 aa] | 0.677 ± 0.026 | 0.709 ± 0.063 |  |
| ASNGSIFQFSSP [REC104 C-terminal 12 aa] | 0.692 ± 0.023 | 0.718 ± 0.01 |  |
| ASSSDRPTVAAT [RRT5 C-terminal 12 aa] | 0.6995 ± 0.0066 | 0.681 ± 0.021 |  |
| ATICSVAFVKQN [EFM4 C-terminal 12 aa] | 0.6241 ± 0.0034 | 0.224 ± 0.011 |  |
| ATPPYQVFKQQL [FMN1 C-terminal 12 aa] | 0.698 ± 0.071 | 0.668 ± 0.028 |  |
| ATRRHLAHAPKL [DPI8 C-terminal 12 aa] | 0.799 ± 0.016 | 0.782 ± 0.064 |  |
| AVETLKKGGFLP [YDL177C C-terminal 12 aa] | 0.7 ± 0.013 | 0.685 ± 0.0071 |  |
| AVFYIFETLSAL [ORT1 C-terminal 12 aa] | 0.653 ± 0.015 | 0.654 ± 0.0084 |  |
| AVGIQSSESLLM [YMR175W-A C-terminal 12 aa] | 0.688 ± 0.012 | 0.715 ± 0.031 |  |
| AVKYLYRQIVRN [EFM2 C-terminal 12 aa] | 0.6832 ± 0.0033 | 0.6213 ± 0.0041 |  |
| AVNGSDGQHCQI [AVT2 C-terminal 12 aa] | 0.687 ± 0.023 | 0.6543 ± 0.0021 |  |
| AYQITKRGIETA [RAD57 C-terminal 12 aa] | 0.675 ± 0.061 | 0.6951 ± 0.004 |  |
| CAVDAIFYWLLM [GMC1 C-terminal 12 aa] | 0.652 ± 0.026 | 0.486 ± 0.026 |  |
| CAVGGPEKLKFY [BUD3 C-terminal 12 aa] | 0.726 ± 0.018 | 0.758 ± 0.018 |  |
| CCGSVLLWCLVV [YLR437C-A C-terminal 12 aa] | 0.4309 ± 0.0019 | 0.27 ± 0.0046 |  |
| CDLVKNSNGLST [YOR200W C-terminal 12 aa] | 0.68 ± 0.01 | 0.685 ± 0.039 |  |

| Sequence | protein stability index [1, 4] | protein stability index ([1]; genetic background: wild type) | further results |
| --- | --- | --- | --- |
| CENANYRGAEVP [YIL175W C-terminal 12 aa] | 0.692 ± 0.017 | 0.689 ± 0.015 |  |
| CFSCFHLSTHTN [YDR157W C-terminal 12 aa] | 0.725 ± 0.018 | 0.6252 ± 0.005 |  |
| CFWRMICSEPKL [YAR064W C-terminal 12 aa] | 0.736 ± 0.0093 | 0.623 ± 0.052 |  |
| CGGRPQYGVMFA [YDR249C C-terminal 12 aa] | 0.6887 ± 0.0013 | 0.702 ± 0.023 |  |
| CINCSRFIHNIN [YMR230W-A C-terminal 12 aa] | 0.70103 ± 0.00057 | 0.304 ± 0.013 |  |
| CNLFSERKPVNH [YGL188C-A C-terminal 12 aa] | 0.6966 ± 0.0021 | 0.691 ± 0.011 |  |
| CSGIPSGSGASC [PGU1 C-terminal 12 aa] | 0.691 ± 0.011 | 0.673 ± 0.076 |  |
| CWMLWLQDRPVC [YBL112C C-terminal 12 aa] | 0.627 ± 0.017 | 0.625 ± 0.02 |  |
| CYQDYNHDHRSH [OSW2 C-terminal 12 aa] | 0.7147 ± 0.0055 | 0.6835 ± 0.0018 |  |
| DAKNANEKNKTY [PIS1 C-terminal 12 aa] | 0.687 ± 0.035 | 0.42 ± 0.033 |  |
| DATLYLGRFLPH [PEF1 C-terminal 12 aa] | 0.70773 ± 2.5e-05 | 0.667 ± 0.01 |  |
| DDCLIELPNGNI [RRN9 C-terminal 12 aa] | 0.6888 ± 0.0021 | 0.703 ± 0.041 |  |
| DDGIATYNNTQG [KNS1 C-terminal 12 aa] | 0.693 ± 0.03 | 0.72 ± 0.027 |  |
| YSVNSLFCKVFG |  |  | protein stability index [2, 5]: 0.469 ± 0.012; protein stability index [2, 6]: 0.4777 ± 0.00052; protein stability index [2, 7]: 0.348 ± 0.031; protein stability index [2, 8]: 0.541 ± 0.0043; protein stability index [2, 9]: 0.3135 ± 0.0031; protein stability index [2, 10]: 0.361 ± 0.022; protein stability index [2, 11]: 0.5054 ± 0.002; protein stability index [3]: 0.417 ± 0.032 |
| YTCFLFLLRCMT |  |  | protein stability index [2, 5]: 0.303 ± 0.048; protein stability index [2, 6]: 0.3521 ± 0.00065; protein stability index [2, 7]: 0.261 ± 0.044; protein stability index [2, 8]: 0.415 ± 0.0047; protein stability index [2, 9]: 0.1757 ± 0.00026; protein stability index [2, 10]: 0.198 ± 0.024; protein stability index [2, 11]: 0.294 ± 0.002; protein stability index [3]: 0.292 ± 0.003 |
| YVDSGLTLIHLA |  |  | protein stability index [2, 5]: 0.606 ± 0.0079; protein stability index [2, 6]: 0.723 ± 0.036; protein stability index [2, 7]: 0.662 ± 0.018; protein stability index [2, 8]: 0.72 ± 0.013; protein stability index [2, 9]: 0.17091 ± 8.6e-05; protein stability index [2, 10]: 0.181 ± 0.023; protein stability index [2, 11]: 0.334 ± 0.011; protein stability index [3]: 0.297 ± 0.021 |
| YVQTKKTRYVLV |  |  | protein stability index [2, 5]: 0.483 ± 0.027; protein stability index [2, 6]: 0.506 ± 0.027; protein stability index [2, 7]: 0.383 ± 0.025; protein stability index [2, 8]: 0.543 ± 0.011; protein stability index [2, 9]: 0.32 ± 0.0047; protein stability index [2, 10]: 0.343 ± 0.018; protein stability index [2, 11]: 0.5038 ± 0.0023; protein stability index [3]: 0.454 ± 0.055 |
| YVSIWSPILWLA |  |  | protein stability index [2, 5]: 0.1694 ± 0.0014; protein stability index [2, 6]: 0.262 ± 0.012; protein stability index [2, 7]: 0.293 ± 0.028; protein stability index [2, 8]: 0.453 ± 0.0083; protein stability index [2, 9]: 0.0697 ± 0.007; protein stability index [2, 10]: 0.0628 ± 0.017; protein stability index [2, 11]: 0.0657 ± 0.016; protein stability index [3]: 0.117 ± 0.024 |
| YYFCMYFKVTLC |  |  | protein stability index [2, 5]: 0.0445 ± 0.006; protein stability index [2, 6]: 0.15 ± 0.064; protein stability index [2, 7]: 0.15 ± 0.028; protein stability index [2, 8]: 0.285 ± 0.0044; protein stability index [2, 9]: 0.0456 ± 0.019; protein stability index [2, 10]: 0.043 ± 0.0087; protein stability index [2, 11]: 0.0707 ± 0.042; protein stability index [3]: 0.0781 ± 0.03 |
| YYFFLTFLCYVF |  |  | protein stability index [2, 5]: 0.153 ± 0.024; protein stability index [2, 6]: 0.216 ± 0.039; protein stability index [2, 7]: 0.154 ± 0.023; protein stability index [2, 8]: 0.255 ± 0.01; protein stability index [2, 9]: 0.148 ± 0.019; protein stability index [2, 10]: 0.112 ± 0.027; protein stability index [2, 11]: 0.221 ± 0.011; protein stability index [3]: 0.207 ± 0.018 |
